Results published in patent US20230265151A1, “GIP/GLP1 CO-AGONIST COMPOUNDS” (priority 2020, published 2023).

Legend:
[1] = biological target: T1, human glucagon receptor (human, UniProt P47871 26-477); experiment: SPA competition vs [125I]-Gcg, hGcgR membranes
T1 construct: whole, on cells; also called hGCGR; hGcgR
T1 sequence (P47871 26-477): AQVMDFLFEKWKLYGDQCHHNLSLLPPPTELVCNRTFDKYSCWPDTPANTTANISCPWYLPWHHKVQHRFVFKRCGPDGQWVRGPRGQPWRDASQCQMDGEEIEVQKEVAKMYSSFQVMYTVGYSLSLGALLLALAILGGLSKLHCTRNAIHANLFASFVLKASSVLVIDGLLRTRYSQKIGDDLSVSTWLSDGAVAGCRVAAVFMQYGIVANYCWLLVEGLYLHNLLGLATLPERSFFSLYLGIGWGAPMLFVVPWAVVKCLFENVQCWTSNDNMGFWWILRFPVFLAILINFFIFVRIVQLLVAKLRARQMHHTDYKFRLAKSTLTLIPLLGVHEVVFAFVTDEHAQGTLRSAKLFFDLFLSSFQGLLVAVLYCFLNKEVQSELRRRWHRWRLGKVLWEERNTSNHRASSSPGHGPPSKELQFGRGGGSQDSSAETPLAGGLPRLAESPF

[2] = biological target: T2, human GLP-1 receptor (human, UniProt P43220 24-463); experiment: SPA competition vs [125I]-GLP-1, hGLP-1R membranes
T2 construct: whole, on cells; also called hGLP-1R; human glucagon-like peptide-1 receptor
Summary of the method: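 Competition binding in 25 mM HEPES pH 7.4, 2.5 mM CaCl₂, 1 mM MgCl₂, 0.1% bacitracin, 0.003% TWEEN-20, EDTA-free protease inhibitors. IC₅₀ from four-parameter nonlinear fit; Kᵢ given as geometric mean ± SEM, n = independent replicates on different days.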

[3] = biological target: T3, human GIP receptor (human, UniProt P48546 22-466); experiment: SPA competition vs [125I]-GIP, hGIPR membranes
T3 construct: whole, on cells; also called hGIPR; human glucose-dependent insulinotropic polypeptide receptor
T3 sequence (looked up): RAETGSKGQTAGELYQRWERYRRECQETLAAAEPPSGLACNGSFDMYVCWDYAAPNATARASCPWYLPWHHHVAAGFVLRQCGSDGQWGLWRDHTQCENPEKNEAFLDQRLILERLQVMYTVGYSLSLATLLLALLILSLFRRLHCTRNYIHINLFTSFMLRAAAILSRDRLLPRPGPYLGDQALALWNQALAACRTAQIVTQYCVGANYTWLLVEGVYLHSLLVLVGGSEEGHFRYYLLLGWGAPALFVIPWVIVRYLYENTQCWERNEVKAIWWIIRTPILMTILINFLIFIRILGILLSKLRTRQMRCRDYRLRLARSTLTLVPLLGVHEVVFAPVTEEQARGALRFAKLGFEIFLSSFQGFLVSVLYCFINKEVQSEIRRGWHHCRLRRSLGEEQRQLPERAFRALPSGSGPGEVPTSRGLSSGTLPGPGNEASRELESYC

[4] = biological target: human glucagon receptor (human, UniProt P47871 26-477); experiment: cell-based or functional assay
[5] = biological target: T4, human GIP receptor (human, UniProt P48546 22-466); experiment: cell-based or functional assay
T4 sequence (looked up): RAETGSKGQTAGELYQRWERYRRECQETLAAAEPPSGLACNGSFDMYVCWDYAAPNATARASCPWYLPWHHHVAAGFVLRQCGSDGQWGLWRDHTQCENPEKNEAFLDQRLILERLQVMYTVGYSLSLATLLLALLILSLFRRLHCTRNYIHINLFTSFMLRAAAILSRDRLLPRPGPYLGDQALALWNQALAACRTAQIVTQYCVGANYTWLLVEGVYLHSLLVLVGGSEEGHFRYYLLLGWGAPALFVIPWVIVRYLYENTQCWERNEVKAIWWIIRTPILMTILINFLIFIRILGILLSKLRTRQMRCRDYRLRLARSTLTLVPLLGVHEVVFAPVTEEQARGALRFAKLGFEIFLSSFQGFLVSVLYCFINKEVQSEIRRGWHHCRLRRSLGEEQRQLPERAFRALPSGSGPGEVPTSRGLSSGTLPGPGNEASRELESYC

[6] = biological target: human GLP-1 receptor (human, UniProt P43220 24-463); experiment: cell-based or functional assay

Row | Binder | Ki [1] | Ki [2] | Ki [3] | cAMP EC50 (1.0% HSA) [4] | cAMP EC50 (1.0% HSA) [5] | cAMP Emax (1.0% HSA) [5] | cAMP EC50 (1.0% HSA) [6] | cAMP Emax (1.0% HSA) [6]
1 | YXEGTXTSDYXIXLDXQAQXXFIKXLIKGGPSSGAPPPS (Aib2, αMeF(2F)6, Aib11, αMeL13, Orn16, Aib20, Orn21, K24(Z1), αMeY25, K28(Z1), C-term NH2; Z1=AEEA2-(γ-Glu)-C10_4CP (so in the source)) | 28.6 nM | 0.233 nM | 0.0264 nM |  |  |  |  | 
2 | YXEGTXTSDXSIXLDXKAQXEFIXXLIEGGPSSGAPPPSK (Y-Aib-EGT-αMeF(2F)-TSD-4Pal-SI-αMeL-LD-Orn-K((2-[2-(2-Amino-ethoxy)-ethoxy]-acetyl)2-CO-(CH2)12-CO2H)AQ-Aib-EFI-(D-Glu)-αMeY-LIEGGPSSGAPPPSK((2-[2-(2-Amino-ethoxy)-ethoxy]-acetyl)2-CO-(CH2)12-CO2H)-NH2) [Example 221] |  |  |  | > 9950 nM | 0.838 nM | 67.4% | 17.9 nM | 
3 | YXEGTXTSDXSIXLDXKAQXEFIXXLIEGGPSSGAPPPSK (Y-Aib-EGT-αMeF(2F)-TSD-2Nal-SI-αMeL-LD-Orn-K((2-[2-(2-Amino-ethoxy)-ethoxy]-acetyl)2-CO-(CH2)12-CO2H)AQ-Aib-EFI-(D-Glu)-αMeY-LIEGGPSSGAPPPSK((2-[2-(2-Amino-ethoxy)-ethoxy]-acetyl)2-CO-(CH2)12-CO2H)-NH2) [Example 257] |  |  |  | > 9950 nM | 5.61 nM | 72.2% | 46.3 nM | 
4 | YXEGTXTSDXSIXLDXKAQXEFIXXLIEGGPSSGAPPPSK (Aib2, αMeF(2F)6, 4Pal10, αMeL13, Orn16, K17(Z1), Aib20, D-Glu24, αMeY25, K40(Z1), C-term NH2; Z1=AEEA2-(γ-Glu)-CO-(CH2)14-CH3) | 0.283 nM | 0.483 nM | 0.0293 nM |  |  |  |  | 
5 | YXEGTXTSDXSIXLDXIAQXKFIXXLIEGGPSSGAPPPSK (Y-Aib-EGT-αMeF(2F)-TSD-4Pal-SI-αMeL-LD-Orn-IAQ-Aib-K((2-[2-(2-Amino-ethoxy)-ethoxy]-acetyl)3-(γ-Glu)-CO-(CH2)12-CO2H)FI-(D-Glu)-αMeY-LIEGGPSSGAPPPSK((2-[2-(2-Amino-ethoxy)-ethoxy]-acetyl)3-(γ-Glu)-CO-(CH2)12-CO2H)-NH2) [Example 228] |  |  |  | > 9950 nM | 3.37 nM | 83.3% | 42 nM | 119%
6 | YXEGTXTSDXSIXLDXKAQXEFIXXLIEGGPSSGAPPPSK (Y-Aib-EGT-αMeF(2F)-TSD-4Pal-SI-αMeL-LD-Orn-K((2-[2-(2-Amino-ethoxy)-ethoxy]-acetyl)3-(γ-Glu)-CO-(CH2)12-CO2H)AQ-Aib-EFI-(D-Glu)-αMeY-LIEGGPSSGAPPPSK((2-[2-(2-Amino-ethoxy)-ethoxy]-acetyl)3-(γ-Glu)-CO-(CH2)12-CO2H)-NH2) [Example 225] |  |  |  | > 9950 nM | 1.81 nM | 67.5% | 51.6 nM | 
7 | YXEGTXTSDXSIXLDXIAQXKFIXXLIEGGPSSGAPPPSK (Y-Aib-EGT-αMeF(2F)-TSD-2Nal-SI-αMeL-LD-Orn-IAQ-Aib-K((2-[2-(2-Amino-ethoxy)-ethoxy]-acetyl)2-(γ-Glu)-CO-(CH2)12-CO2H)FI-(D-Glu)-αMeY-LIEGGPSSGAPPPSK((2-[2-(2-Amino-ethoxy)-ethoxyl-acetyl)2-(γ-Glu)-CO-(CH2)12-CO2H)-NH2) [Example 254] |  |  |  | > 9950 nM | 16.8 nM | 68.5% | 211 nM | 122%
8 | YXEGTXTSDXSIXLDXIAQXKFIXXLIEGGPSSGAPPPSK (Y-Aib-EGT-αMeF(2F)-TSD-2Nal-SI-αMeL-LD-Orn-IAQ-Aib-K((2-[2-(2-Amino-ethoxy)-ethoxy]-acetyl)2-CO-(CH2)12-CO2H)Fl-(D-Glu)-αMeY-LIEGGPSSGAPPPSK((2-[2-(2-Amino-ethoxy)-ethoxy]-acetyl)2-CO-(CH2)12-CO2H)-NH2) [Example 258] |  |  |  | > 9950 nM | 5.28 nM | 84.3% | 41.5 nM | 
9 | YXEGTXTSDXSIXLDXKAQXEFIXXLIEGGPSSGAPPPSK (Y-Aib-EGT-αMeF(2F)-TSD-2Nal-SI-αMeL-LD-Orn-K((2-[2-(2-Amino-ethoxy)-ethoxy]-acetyl)2-(γ-Glu)-CO-(CH2)12-CO2H)AQ-Aib-EFI-(D-Glu)-αMeY-LIEGGPSSGAPPPSK((2-[2-(2-Amino-ethoxy)-ethoxyl-acetyl)2-(γ-Glu)-CO-(CH2)12-CO2H)-NH2) [Example 251] |  |  |  | > 9950 nM | 14.3 nM | 71.2% | 51 nM | 
10 | YXEGTXTSDXSIXLDXKAQXEFIXXLIKGGPSSGAPPPS (Y-Aib-EGT-αMeF(2F)-TSD-4Pal-SI-αMeL-LD-Orn-K((2-[2-(2-Amino-ethoxy)-ethoxy]-acetyl)3-(γ-Glu)-CO-(CH2)12-CO2H)AQ-Aib-EFI-(D-Glu)-αMeY-LIK((2-[2-(2-Amino-ethoxy)-ethoxy]-acetyl)3-(γ-Glu)-CO-(CH2)12-CO2H)GGPSSGAPPPS-NH2) [Example 224] |  |  |  | > 9950 nM | 2.92 nM |  | 71 nM | 
11 | YXEGTXTSDXSIXLDXKAQXEFIXXLIEGGKSSGAPPPS (Aib2, αMeF(2F)6, 4Pal10, αMeL13, Orn16, K17(Z1), Aib20, D-Glu24, αMeY25, K31(Z1), C-term NH2; Z1=AEEA-(γ-Glu)-CO-(CH2)10-CH3) | 17.6 nM | 0.286 nM | 0.036 nM |  |  |  |  | 
12 | YXEGTXTSDKSIXLDXKAQXEFIXXLIEGGPSSGAPPPS (Aib2, αMeF(2F)6, K10(Z1), αMeL13, Orn16, K17(Z1), Aib20, D-Glu24, αMeY25, C-term NH2; Z1=AEEA2-(γ-Glu)-CO-(CH2)14-CH3) | 0.923 nM | 0.412 nM | 0.0505 nM |  |  |  |  | 
13 | YXEGTXTSDXSIXLDXKAQXEFIXXLIKGGPSSGAPPPS (Y-Aib-EGT-αMeF(2F)-TSD-2Nal-SI-αMeL-LD-Orn-K((2-[2-(2-Amino-ethoxy)-ethoxy]-acetyl)2-CO-(CH2)12-CO2H)AQ-Aib-EFI-(D-Glu)-αMeY-LIK((2-[2-(2-Amino-ethoxy)-ethoxy]-acetyl)2-CO-(CH2)12-CO2H)GGPSSGAPPPS-NH2 …) [Example 256] |  |  |  | > 9950 nM | 1.5 nM | 75.3% | 12.6 nM | 
14 | YXEGTXTSDXSIXLDXKAQXEFIXXLIEGGKSSGAPPPS (Aib2, αMeF(2F)6, 4Pal10, αMeL13, Orn16, K17(Z1), Aib20, D-Glu24, αMeY25, K31(Z1), C-term NH2; Z1=AEEA-(γ-Glu)-CO-(CH2)14-CH3) | 0.987 nM | 0.691 nM | 0.0575 nM |  |  |  |  | 
15 | YXEGTXTSDXSIXLDXKAQXEFIXXLIKGGPSSGAPPPS (Y-Aib-EGT-αMeF(2F)-TSD-2Nal-SI-αMeL-LD-Orn-K((2-[2-(2-Amino-ethoxy)-ethoxy]-acetyl)2-(γ-Glu)-CO-(CH2)12-CO2H)AQ-Aib-EFI-(D-Glu)-αMeY-LIK((2-[2-(2-Amino-ethoxy)-ethoxy]-acetyl)2-(γ-Glu)-CO-(CH2)12-CO2H)GGPSSGAPPPS-NH2) [Example 250] |  |  |  | > 9950 nM | 38.8 nM |  | 63 nM | 
